From article PMC12305020

Target: Tom20 (Chaetomium thermophilum) (Chaetomium thermophilum)
Experiment: cryo-EM structure; TOM complex purified by Tom22-FLAG in GDN, with or without pALDH (maps showed no differences); core 2.7 Å and holo 3.2 Å (pALDH-incubated), core 3.2 Å and holo 3.8 Å (preprotein-free), C2 symmetry imposed

stoichiometry N: 2
Substance: Tom20 (Chaetomium thermophilum) (receptor)
